{"source": "paper doi:10.1101/2024.03.04.583305", "experiment_in_all_cases": "EMSA", "key": {"DuoMYC (5) (synthetic)": {"target": "DuoMYC (5) (synthetic) (UniProt P01106)", "sequence (P01106 365-423)": "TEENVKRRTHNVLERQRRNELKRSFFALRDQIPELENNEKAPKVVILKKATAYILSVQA"}, "DuoMYC (7) (synthetic)": {"target": "DuoMYC (7) (synthetic) (UniProt P01106)", "sequence (P01106 whole entry)": "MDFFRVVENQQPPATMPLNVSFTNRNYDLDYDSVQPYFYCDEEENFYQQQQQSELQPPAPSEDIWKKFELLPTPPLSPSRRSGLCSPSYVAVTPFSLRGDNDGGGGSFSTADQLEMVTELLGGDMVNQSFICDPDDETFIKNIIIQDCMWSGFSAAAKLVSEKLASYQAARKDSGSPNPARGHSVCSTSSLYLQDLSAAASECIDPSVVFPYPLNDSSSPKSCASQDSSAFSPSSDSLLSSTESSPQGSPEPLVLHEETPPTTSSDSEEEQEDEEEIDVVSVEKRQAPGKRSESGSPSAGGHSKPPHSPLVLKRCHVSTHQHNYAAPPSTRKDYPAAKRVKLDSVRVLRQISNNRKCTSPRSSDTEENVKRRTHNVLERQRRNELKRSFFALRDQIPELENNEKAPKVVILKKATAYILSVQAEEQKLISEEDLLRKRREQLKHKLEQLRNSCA"}, "monoMYC (4) (synthetic)": {"target": "monoMYC (4) (synthetic) (UniProt P01106)", "sequence (P01106 365-423)": "as the sequence (P01106 365-423) above"}}}
{"sequence": "ACCCCACCACGTGGTGCCT (double strand) [E-Box DNA]", "values": [{"measurement": "Kd", "setting": "DuoMYC (5) (synthetic)", "value": 0.118, "unit": "µM"}, {"measurement": "Kd", "setting": "DuoMYC (7) (synthetic)", "value": 0.174, "unit": "µM"}, {"measurement": "Kd", "setting": "monoMYC (4) (synthetic)", "value": 0.969, "unit": "µM"}]}
